What all share (assay): Antimicrobial activity of pepsin-treated E. coli displaying multimeric antimicrobial peptide complex
Format in all cases: cell-based
Holding throughout (settings): pepsin-digested in SGF 30 minutes; E. coli BL21 (DE3) = 0%, synthesized Hinge2L = 100%; OD595

In assay [1] the test system is gram-negative Escherichia coli. The method, then:
(§1) The antimicrobial effect of the E. coli strain, constructed in Example 4 and displaying the multimeric antimicrobial peptide complex on the cell surface, was measured. Specifically, the transformed E. coli BL21 (DE3) was cultured in 100 ml of LB medium, and when the culture medium reached an OD600 of 0.5-0.6, 0.2 mM IPTG was added thereto to induce the expression of the multimeric antimicrobial peptide complex linked to the cell surface anchoring motif. 4 hours after the induction of the expression, the medium was removed, and the cells were washed twice with NAPB (sodium phosphate buffer), and then resuspended in the same buffer. All the E. coli samples were adjusted to a cell number of 1×10^10 cfu/ml. Then, pepsin was dissolved in simulated gastric fluid (SGF) (0.084 N HCl, 35 mM NaCl, pH 1.2 or 2.0), and the E. coli cells were treated with the pepsin solution and incubated for 30 minutes. After the incubation, in order to deactivate pepsin and neutralize the pH, the same concentration of NaOH aqueous solution as that of the simulated gastric fluid was added to the cells, and the cell solution was centrifuged to remove cell debris other than the monomeric antimicrobial peptide digested by pepsin.
(§2) The antimicrobial activities of the pepsin-digested monomeric antimicrobial peptide against gram-positive Staphylococus aureus, gram-negative Escherichia coli and the yeast Saccharomyces cerevisiae were measured.
(§3) Each of the microbial strains was collected in the exponential growth phase during the culture, washed twice with NAPB, and then resuspended in the same buffer. The number of the microbial cells was adjusted to 1×10^5 cfu/ml. 10 μl of an aqueous solution containing each microbial strain and the pepsin-digested monomeric antimicrobial peptide was dispensed into each well of a 96-well plate, mixed well and incubated at 37° C. for 3 hours. After 3 hours, 2×TSB (Trypticase Soy Broth) medium was added to the cells which were then incubated at 37° C. for 12 hours, after which the absorbance at OD595 was measured.

The subject of assay [2] is gram-positive Staphylococus aureus. The protocol:
as §1, §2, §3

For assay [3], the system named is yeast Saccharomyces cerevisiae. The protocol: as §1, §2, §3

B1: LH3: trimer of antimicrobial peptide Hinge2L linked to cell surface anchoring motif Lpp-OmpA, displayed on E. coli BL21 (DE3) (protein)
chain: MKATKLVLGNNNGPTHENQLGAGAFGGYQVNPYVGFEMGYDWLGRMPYKGSVENGAYKAQGVQLTAKLGYPITDDLDIYTRLGGMVWRADTKSNVYGKNHDTGVSPVFAGGVEYAITPEIATRGRLRVVRQWPIGRVVRRVVRRVVRLRVVRQWPIGRVVRRVVRRVVRLRVVRQWPIGRVVRRVVRRVVRL
modifications: displayed on E. coli BL21(DE3); DNA sequence of Lpp-OmpA-Hinge2L3
B1: the antimicrobial activity in assay [1] worked out at 30%; in assay [2] it was 17.95%; in assay [3], 33.17%.

The record behind these values is patent publication US10406204B2, “Multimeric antimicrobial peptide complex which is displayed on cell surface” (KOREA ADVANCED INSTITUTE OF SCIENCE AND TECHNOLOGY, priority 2010, dated 2019).
